PMC10342119, “ABF1 Positively Regulates Rice Chilling Tolerance via Inducing Trehalose Biosynthesis” (International Journal of Molecular Sciences, 2023)
Blank lines part the entries; values can stand above or below the binder they belong to.

Tests used:
His-SAPK10 = target: T1, His-SAPK10 (rice (Oryza sativa L.), UniProt Q75H77 1-362); test: pull-down; GST pull-down on glutathione magnetic agarose beads; 50 mM Tris-HCl pH 7.5, 5% glycerol, 1 mM EDTA, 1 mM DTT, 1 mM PMSF, 0.01% Nonidet P-40, 150 mM KCl; 4 °C for 2 h; blots with anti-His and anti-GST; conditions: both partners purified
T1 construct: SAPK10, SnRK2-type Ser/Thr protein kinase of rice; the CDS was fused into pET-28a; source: E. coli Transetta (DE3), purified (6x His-Tagged Protein Purification Kit); not shown: His, N-terminal, kept
T1 sequence (looked up): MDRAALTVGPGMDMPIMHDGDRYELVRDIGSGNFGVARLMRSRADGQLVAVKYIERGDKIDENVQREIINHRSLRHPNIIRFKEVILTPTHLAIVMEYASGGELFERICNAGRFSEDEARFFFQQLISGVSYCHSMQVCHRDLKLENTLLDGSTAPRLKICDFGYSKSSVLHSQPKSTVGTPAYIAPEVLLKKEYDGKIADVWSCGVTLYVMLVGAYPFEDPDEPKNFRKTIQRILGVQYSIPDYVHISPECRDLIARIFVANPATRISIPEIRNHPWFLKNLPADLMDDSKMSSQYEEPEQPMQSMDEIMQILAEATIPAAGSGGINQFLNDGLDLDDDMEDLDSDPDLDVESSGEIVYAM

GST-ABF1 = target: T2, GST-ABF1 (Oryza sativa L. ssp. japonica cv …, UniProt Q0JHF1 1-266); test: EMSA; binding lost with unlabeled probe; EMSA/gel-shift binding buffer (composition, pH and temperature not stated); 20 fmol biotin-labeled probe; 6% acrylamide gel; conditions: protein: recombinant; tags: N-terminal GST (pGEX-4T-1); chain copies: 2; label: biotin; blunt
T2 sequence: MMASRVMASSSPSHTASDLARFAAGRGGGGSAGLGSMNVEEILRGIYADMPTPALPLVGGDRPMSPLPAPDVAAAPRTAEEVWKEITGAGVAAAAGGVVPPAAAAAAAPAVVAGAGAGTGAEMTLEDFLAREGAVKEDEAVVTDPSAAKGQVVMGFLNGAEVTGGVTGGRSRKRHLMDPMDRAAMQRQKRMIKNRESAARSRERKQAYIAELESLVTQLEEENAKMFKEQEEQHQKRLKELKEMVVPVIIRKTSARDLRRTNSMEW

- binding result (His-SAPK10): binds
B1: GST-ABF1 (natural protein, rice (Oryza sativa L.), UniProt Q0JHF1 1-266, looked up)
chain: T2 sequence
notes: ABF1 (bZIP12), bZIP transcription factor of rice; the CDS was fused into pGEX-4T-1; also called bZIP12; source: E. coli Transetta (DE3), purified (GST-Sefinose Kit); not shown: GST, N-terminal, kept

B2: TPS2 promoter probe (P3, G-box) (dsDNA)
DNA 1: CAGACCTGACGTCAGACGACGATTAGCCACGTGGCACACAGTGCACCCGACACGACGAA
DNA 2: TTCGTCGTGTCGGGTGCACTGTGTGCCACGTGGCTAATCGTCGTCTGACGTCAGGTCTG
- binding result (GST-ABF1): binds
